Measurements taken from patent publication US20200095296A1, “USE OF PEPTIDES AS BIOMARKERS IN THE DIAGNOSIS, CONFIRMATION AND TREATMENT OF A NEUROLOGICAL DISORDER AND TCR AND/OR HLA IMMUNOPROFILING IN NEURODEGENERATIVE DISEASE” (THE TRUSTEES OF COLUMBIA UNIVERSITY IN THE CITY OF NEW YORK, priority 2017, published 2020).

Assays:
Experiment in all cases: competition with radiolabeled peptide, purified HLA
HLA DRB1*04:05 (human) = biological target: HLA DRB1*04:05 (human)
HLA DRB3*01:01 (human) = biological target: HLA DRB3*01:01 (human)
HLA DRB1*04:01 (human) = biological target: HLA DRB1*04:01 (human)
HLA DRB1*09:01 (human) = biological target: HLA DRB1*09:01 (human)
HLA DRB1*03:01 (human) = biological target: HLA DRB1*03:01 (human)
HLA DRB1*11:01 (human) = biological target: HLA DRB1*11:01 (human)

Row | Substance | IC50 (HLA DRB1*04:05 (human)) [nM] | IC50 (HLA DRB3*01:01 (human)) [µM] | IC50 (HLA DRB1*04:01 (human)) [µM] | further results
1 | alpha-syn peptide aa116…aa130 phosphorylated at S129 | 3600 | – | – | –
2 | alpha-syn peptide aa121…aa135 phosphorylated at S129 | – | 9.18 | 9.13 | –
3 | alpha-syn peptide aa121…aa135 | 1940 | – | – | IC50 (HLA DRB1*09:01 (human)): 4.6 µM
4 | alpha-syn peptide aa126…aa140 phosphorylated at S129 | – | – | 4.96 | –
5 | alpha-syn peptide aa116…aa130 | – | 5.67 | – | IC50 (HLA DRB1*03:01 (human)): 6.96 µM; IC50 (HLA DRB1*11:01 (human)): 1570 nM
